Laboratory results as given in publication PMC10883919.

Molecular target: T1, TcrX D54A D54A (Mycobacterium tuberculosis H37Rv) (UniProt O69730)
T1 sequence: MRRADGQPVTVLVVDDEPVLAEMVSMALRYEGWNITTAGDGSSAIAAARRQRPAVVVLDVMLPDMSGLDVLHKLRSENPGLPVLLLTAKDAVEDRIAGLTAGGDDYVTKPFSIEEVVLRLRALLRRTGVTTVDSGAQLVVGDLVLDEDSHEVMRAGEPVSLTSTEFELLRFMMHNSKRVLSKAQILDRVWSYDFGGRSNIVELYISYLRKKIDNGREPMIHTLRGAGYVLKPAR
Assay: EMSA

In the case of “TACGACACGCTCAACCGAGATGCGGTGCTGCGTCACAGCGTCAAGTATCCGCACACGGCTGAGCAGACGCCATGCGGATCCTATGTGCGCGCTATGAAACCCGATTTG (double strand) [PtcrXY]”, the binding is reported as “binds”.
